Article PMC6708486 (Nature chemistry, 2019)
Where “and” joins values, the source holds several entries; their conditions need not be identical. Equal values may be shown once.

What was measured:
AUC = biological target: the molecule itself; experiment: AUC
crystal structure = biological target: the molecule itself; experiment: crystal structure

| Protein | stoichiometry N (AUC) | binding result (crystal structure) |
| --- | --- | --- |
| LepI (enzyme) ETVAAIKTLIQQLAQSTDQFGRAEINDALRELQYSLETPFDTVMRMSLDTCQVAVARIGSDLGLFKHLSQCASPQSAEELADHLGCGRELMSRLLRYMASVRMVQQTDDIKYISSNITQTLAVPGLEAGMRHAFENLWPVLMALPDFLAERKYPDIVDAKDTAFQKAFNTDQDCFHWLATQPTRIANFKVLLTDERTPNFLSTFPLEKELGSWSAEPEKALFVDIGGGMGHACIRLREKYPNQPGRVILQDLPPVLQAAQATLPLSGIESMPHNFHTPQPVQGAKFYFLRLILRDFPDHQALEILQNIVPAMDAESRIVIDDGVPPEKGARWAETGTDICIMSALGSKERTQRQWEELAAKAGLQLQALYQYTWPVVNAAMVFSLQ | 2 and 4 | – |
| LepI (C52A) (enzyme) ETVAAIKTLIQQLAQSTDQFGRAEINDALRELQYSLETPFDTVMRMSLDTAQVAVARIGSDLGLFKHLSQCASPQSAEELADHLGCGRELMSRLLRYMASVRMVQQTDDIKYISSNITQTLAVPGLEAGMRHAFENLWPVLMALPDFLAERKYPDIVDAKDTAFQKAFNTDQDCFHWLATQPTRIANFKVLLTDERTPNFLSTFPLEKELGSWSAEPEKALFVDIGGGMGHACIRLREKYPNQPGRVILQDLPPVLQAAQATLPLSGIESMPHNFHTPQPVQGAKFYFLRLILRDFPDHQALEILQNIVPAMDAESRIVIDDGVPPEKGARWAETGTDICIMSALGSKERTQRQWEELAAKAGLQLQALYQYTWPVVNAAMVFSLQ | – | binds |
